According to PMC10945777 (Proceedings of the National Academy of Sciences of the …, 2024):
Blank lines part the entries; values can stand above or below the molecule they belong to.

Columns and labels:
[1] = target: NrtBCD (nitrate site in NrtB dimer) (Nostoc sp. PCC 7120 = FACHB-418, UniProt A0ACD6B946); assay: colorimetric ATPase assay; assay type: biochemical; conditions: 2 mM MgCl2, 50 mM Tris-HCl pH 8.0, 150 mM NaCl, 0.02% GDN, 37 °C
[2] = target: NrtB of Anabaena sp. PCC 7120 (transmembrane subunit, as it stands in NrtBCD) (Anabaena sp. PCC 7120); assay: cryo-EM structure
[3] = target: signaling protein PII of Anabaena sp. PCC 7120 (Anabaena sp. PCC 7120); assay: cryo-EM structure

Molecule: O=[N+]([O-])O [nitrate]
fold stimulation of ATPase activity at 8 mM [1]: ~ 2.5 fold

stoichiometry N [2]: 2
Molecule: NrtB of Anabaena sp. PCC 7120 (transmembrane subunit, as it stands in NrtBCD) (natural protein)

stoichiometry N [3]: 3
Molecule: signaling protein PII of Anabaena sp. PCC 7120 (natural protein)
